For the experiment, the target named is T1, RANK-L (UniProt O14788 140-317, limits assumed).
T1 sequence (looked up): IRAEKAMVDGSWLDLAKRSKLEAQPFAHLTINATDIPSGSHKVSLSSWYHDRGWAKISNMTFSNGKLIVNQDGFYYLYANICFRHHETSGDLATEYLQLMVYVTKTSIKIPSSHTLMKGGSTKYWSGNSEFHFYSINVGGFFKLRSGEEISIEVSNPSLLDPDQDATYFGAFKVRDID
Briefly: polarization anisotropy at steady state, 1 ug/mL Alexa568 TNF with increasing concentrations of RANK-L, 1 hour at 37 C. The method, then: This assay necessitated a fluorescently labeled TNF trimer that at limiting concentrations could be used as a tracer to monitor exchange. We generated a TNF variant (R31C/C69V/C101A) and specifically labeled it with Alexa568 maleimide at the R31 position. Polarization anisotropy measures heterotrimer formation at steady-state. We mixed 1 ug/mL Alexa568 TNF either alone (open circles) or with increasing concentrations of RANK-L (open squares), PEG20k-A145R/Y87H TNF, PEG5k-A145R/Y87H, or A145R/Y87H in PBS/0.02% igepal for 1 hour at 37 C. These reactions were placed into the spectroscopic instrument-and the steady-state anisotropy was measured. […] (FIG. 8B) Addition of surfactant excipients catalyzes the exchange between TNF homotrimers. We mixed together 1 ug/mL Alexa568 TNF alone (open circles) or with 100 ug/mL PEG-5k A145R/I97T TNF (closed circles) in a 96-well assay format and began anisotropy measurements. After ˜2000 seconds the instrument was paused and 0.5% polysorbate-20 or polysorbate-80 were added and the measurement was resumed.

B1: Alexa568 TNF (TNF variant R31C/C69V/C101A labeled with Alexa568 maleimide) (ligand, human, UniProt P01375 77-233, looked up)
chain: VRSSSRTPSDKPVAHVVANPQAEGQLQWLNCRANALLANGVELRDNQLVVPSEGLYLIYSQVLFKGQGVPSTHVLLTHTISRIAVSYQTKVNLLSAIKSPAQRETPEGAEAKPWYEPIYLGGVFQLEKGDRLSAEINRPDYLDFAESGQVYFGIIAL
modifications: Alexa568 maleimide at the R31 position (Cys of R31C)
notes: extracellular domain; Fluorescent tracer homotrimer
For B1, the binding result is on record as “no binding”.

For the origin of these results see patent US20050221443A1 (published 2005).
